Marks after values point to notes of the source that are not given here.
Tests used:
Glu104 = experiment: NMR; details: 25 °C, not stated for the titration samples, folded, more structured form (MSF), signals were lost above pH 6.4 because the population of the structured form is low there
Glu68 = experiment: NMR; details: 25 °C, not stated for the titration samples, folded, more structured form (MSF), signals were lost above pH 6.4 because the population of the structured form is low there
Glu63 = experiment: NMR; details: 25 °C, not stated for the titration samples, folded, more structured form (MSF), signals were lost above pH 6.4 because the population of the structured form is low there
Glu28 = experiment: NMR; details: 25 °C, not stated for the titration samples, folded, more structured form (MSF), signals were lost above pH 6.4 because the population of the structured form is low there
Glu83 = experiment: NMR; details: 25 °C, not stated for the titration samples, folded, more structured form (MSF), signals were lost above pH 6.4 because the population of the structured form is low there
Glu105 = experiment: NMR; details: 25 °C, not stated for the titration samples, folded, more structured form (MSF), signals were lost above pH 6.4 because the population of the structured form is low there
Glu38 = experiment: NMR; details: 25 °C, not stated for the titration samples, folded, more structured form (MSF), signals were lost above pH 6.4 because the population of the structured form is low there
Glu107 [1] = experiment: NMR; details: 25 °C, not stated for the titration samples, folded, more structured form (MSF), signals were lost above pH 6.4 because the population of the structured form is low there
Glu87 = experiment: NMR; details: 25 °C, not stated for the titration samples, folded, more structured form (MSF), signals were lost above pH 6.4 because the population of the structured form is low there
Glu107 [2] = experiment: other (circular dichroism); details: 25 °C; 50 mM NaCl; none stated; 30 µM protein in 50 mM NaCl titrated with 0.05-0.1 M HCl or NaOH; transition between the more structured form (MSF) and the less structured form (LSF) of the double mutant

Substance	pKa (Glu104)	pKa (Glu68)	pKa (Glu63)	pKa (Glu28)	pKa (Glu83)	pKa (Glu105)	pKa (Glu38)	pKa (Glu107 [1])	pKa (Glu87)	pKa (Glu107 [2])
DraK histidine kinase, extracellular sensor domain (ESD), wild type (Streptomyces coelicolor A3(2))	4.6	4.5	4.5	3.9	5.3	5.5	4.3	above 6.4	3.7	
DraK histidine kinase, extracellular sensor domain (ESD), E83L/E105L double mutant (Streptomyces coelicolor A3(2); E83L;E105L)										8.1*

Source: paper PMC4159317
